Our source for the percent decrease of binding to HeLa cells with 1 μM AMD3100 (CXCR4 blocking agent) values is article PMC10655040.

The target of the experiment is CXCR4 (human (endogenous in HeLa)) (UniProt P61073). The experiment is described as follows: flow cytometry on cells; competition on HeLa cells: 100 nM sfGFP(Y151pAzF)-SDF-1β coincubated with 1 μM commercial SDF-1β (R&D) or 1 μM CXCR4 blocking agent AMD3100; 10 000 cells per sample. (Flow cytometry measures light scatter and fluorescence of single cells or particles in a stream.)
UniProt P61073, sequence (P61073 whole entry): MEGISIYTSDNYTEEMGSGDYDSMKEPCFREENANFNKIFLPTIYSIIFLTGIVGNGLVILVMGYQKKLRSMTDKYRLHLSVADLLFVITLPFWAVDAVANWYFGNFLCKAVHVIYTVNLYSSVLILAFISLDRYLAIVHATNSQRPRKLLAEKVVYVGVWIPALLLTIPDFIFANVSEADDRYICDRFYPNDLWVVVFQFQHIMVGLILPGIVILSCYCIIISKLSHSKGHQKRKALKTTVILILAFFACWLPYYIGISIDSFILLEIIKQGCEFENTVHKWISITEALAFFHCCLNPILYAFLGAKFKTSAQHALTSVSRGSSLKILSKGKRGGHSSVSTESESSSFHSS

With sfGFP(Y151pAzF)-SDF-1β (ligand), the percent decrease of binding to HeLa cells with 1 μM AMD3100 (CXCR4 blocking agent) was 30%.
